Experimental findings from PMC5526940 (Scientific Reports, 2017) are described below.

B2: Phaseolus vulgaris erythroagglutinin (natural protein)
chain: ASQTSFSFQRFNETNLILQRDATVSSKGQLRLTNVNDNGEPTLSSLGRAFYSAPIQIWDNTTGAVAASPTSFTFNIDVPNNSGPADGLAFVLLPVGSQPKDKGGLLGLFNNYKYDSNAHTVAVEFDTLYNVHWDPKPRHIGIDVNSIKSIKTTTWDFVKGENAEVLITYDSSTKLLVASLVYPSLKTSFIVSDTVDLKSVLPEWVIVGFTATTGITKGNVETNDILSWSFASKLSDGTTSEALNLANFALNQIL
modifications: TRITC label
notes: Phaseolus vulgaris erythroagglutinin; also called PHA-E; source: bought: EY Laboratories or Vector Laboratories (TRITC-labelled)

Common to all, as to assay: peptide or protein array
What all share (details): both partners purified

For test [1], the target named is B2.
Test [2] concerns the target T1, Phaseolus vulgaris leucoagglutinin (Phaseolus vulgaris, UniProt P05087 21-272, TRITC label).
T1 construct: Phaseolus vulgaris leucoagglutinin; also called PHA-L; source: bought: EY Laboratories or Vector Laboratories (TRITC-labelled)
T1 sequence: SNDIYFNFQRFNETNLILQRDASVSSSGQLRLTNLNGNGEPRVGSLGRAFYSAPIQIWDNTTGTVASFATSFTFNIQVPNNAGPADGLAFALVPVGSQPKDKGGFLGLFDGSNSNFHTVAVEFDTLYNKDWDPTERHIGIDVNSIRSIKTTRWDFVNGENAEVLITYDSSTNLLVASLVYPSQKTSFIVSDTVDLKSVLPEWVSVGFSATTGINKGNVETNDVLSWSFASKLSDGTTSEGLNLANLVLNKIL

Test [3] deals with T2, chicken egg white ovalbumin (chicken, UniProt P01012 1-386).
T2 construct: Printed on the microarray at 0.5 mg/mL; source: bought: Sigma-Aldrich
T2 sequence (looked up): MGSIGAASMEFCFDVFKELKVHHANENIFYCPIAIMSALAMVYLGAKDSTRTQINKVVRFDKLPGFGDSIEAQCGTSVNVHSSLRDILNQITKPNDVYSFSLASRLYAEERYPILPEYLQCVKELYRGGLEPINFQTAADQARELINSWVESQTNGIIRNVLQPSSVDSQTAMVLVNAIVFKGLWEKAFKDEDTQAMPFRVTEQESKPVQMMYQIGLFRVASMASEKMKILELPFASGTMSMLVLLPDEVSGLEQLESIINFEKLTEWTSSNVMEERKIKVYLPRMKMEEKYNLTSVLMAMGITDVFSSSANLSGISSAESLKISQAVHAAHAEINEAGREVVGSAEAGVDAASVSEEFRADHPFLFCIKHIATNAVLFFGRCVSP

B1: chicken egg white ovomucoid (natural protein, UniProt P01005 25-210, looked up)
chain: AEVDCSRFPNATDKEGKDVLVCNKDLRPICGTDGVTYTNDCLLCAYSIEFGTNISKEHDGECKETVPMNCSSYANTTSEDGKVMVLCNRAFNPVCGTDGVTYDNECLLCAHKVEQGASVDKRHDGGCRKELAAVSVDCSEYPKPDCTAEDRPLCGSDNKTYGNKCNFCNAVVESNGTLTLSHFGKC
notes: Printed on the microarray at 0.5 mg/mL; also called OVM; source: bought: Sigma-Aldrich
In the case of B1, the binding result in test [1] and in test [2] was “binds” in each case.

Take B2: the binding result in test [3] is “binds”.
